This assay concerns HCT116 cells. Briefly: Apoptosis (sub-G1 DNA, TUNEL) in HCT116 transfectants. The note with it: FIG. 19. It is filed as cell-based, human. Here is the method:
Methods. Apoptotic cells were quantified by analysis of sub-G1 DNA and TUNEL staining. To assess sub-G1 DNA content, cells were harvested, washed with PBS, fixed with 80% ethanol, and incubated in PBS containing 20 ng/ml RNase (Roche) for 60 min at 37° C. Cells were then stained with […] propidium iodide (Sigma) for 30 min at room temperature in the dark. DNA content was analyzed by flow cytometry (EPICS XL-MCL, Coulter Corp.). Apoptotic cells with DNA fragmentation were detected by staining with the In Situ cell death detection kit (TUNEL; Roche Applied Science) and visualized by confocal microscopy (ZEISS LSM510). After staining, cells were analyzed by flow cytometry. Other experimental procedures and methods were as described in Example 15.
Results. To determine if MUC1 affects the induction of apoptosis by CDDP, cells were analyzed for sub-G1 DNA content. […] Stimulation of cell surface death receptors with TNF-α or the TNF-related apoptosis inducing factor TRAIL is associated with activation of the extrinsic apoptotic pathway. To determine if MUC1 affects death receptor-induced apoptosis, HCT116 cells were treated with TNF-α.

B1: TRAIL: TNF-related apoptosis inducing factor TRAIL, rhTRAIL (Calbiochem-Novabiochem) (protein, UniProt P50591 1-281, looked up)
Tumor necrosis factor ligand …: MAMMEVQGGPSLGQTCVLIVIFTVLLQSLCVAVTYVYFTNELKQMQDKYSKSGIACFLKEDDSYWDPNDEESMNSPCWQVKWQLRQLVRKMILRTSEETISTVQEKQQNISPLVRERGPQRVAAHITGTRGRSNTLSSPNSKNEKALGRKINSWESSRSGHSFLSNLHLRNGELVIHEKGFYYIYSQTYFRFQEEIKENTKNDKQMVQYIYKYTSYPDPILLMKSARNSCWSKDAEYGLYSIYQGGIFELKENDRIFVSVTNEHLIDMDHEASFFGAFLVG
On to B1, for which, under “HCT116/MUC1 cells”, the “TRAIL-induced apoptosis, effect of MUC1” value is “attenuated this response”. In addition, for the setting “HCT116/vector cells, 100 ng/ml TRAIL without CHX”, the apoptosis result is given as “effective in inducing apoptosis”.

The values are drawn from US20050042209A1, “MUC1 extracellular domain and cancer treatment compositions and methods derived therefrom” (priority 2000, published 2005).
